Experimental data from publication PMC7538681.

Tests used:
[1] = target: Sinorhizobium meliloti glutaredoxin 2 (SmGrx2), untagged (Sinorhizobium meliloti (strain Sm2011)); experiment: ITC; SmGrx2 (50 µM, in the cell) titrated with SmYrbA (800 µM), 30 mM phosphate buffer pH 8.0, 20°C, one-set-of-sites model, duplicate
[2] = target: N-terminal His-tagged SmYrbA (Sinorhizobium meliloti (strain Sm2011)); experiment: switchSENSE; His-tagged SmYrbA held on Ni-NTA3-tagged 48mer DNA nanolevers on the chip; SmGrx2 injected at 25, 50 and 100 µM; 10 mM potassium phosphate pH 7.4, 2 mM MgCl2; 25°C; switching dynamic mode; single-exponential fits; Kd = koff/kon
Chain of N-terminal His-tagged SmYrbA (Sinorhizobium meliloti (strain Sm2011)) (main, as listed by the source): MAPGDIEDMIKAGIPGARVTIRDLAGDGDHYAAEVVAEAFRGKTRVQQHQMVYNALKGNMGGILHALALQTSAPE

Kd [1] | dH [1] | stoichiometry N [1] | Kd [2] | dissociation halftime [2] | koff [2] | kon [2] | Substance
6.8 µM | -2.9 kcal/mol | 1.27 | – | – | – | – | Sinorhizobium meliloti YrbA (SmYrbA), untagged (natural protein)
– | – | – | 5.6 µM | 50 s | 0.014 s⁻¹ | 2410 M⁻¹ s⁻¹ | Sinorhizobium meliloti glutaredoxin 2 (SmGrx2), untagged (natural protein)
